Measurements reported in paper PMC7961039, “Musashi-2 (MSI2) regulates epidermal growth factor receptor (EGFR) expression and response to EGFR inhibitors in EGFR-mutated non-small cell lung cancer (NSCLC)”.

What follows are binders tested against Musashi-2 (MSI2) (UniProt Q96DH6 1-328) (assay: EMSA; 10 mM HEPES pH 7.6, 20 mM KCl, 1 mM MgCl2, 1 mM DTT, 5% glycerol, protease inhibitors, 2 ug tRNA, 20 U SUPERase-In, 20 ul, 50 ng MSI2, 20 ng RNA, 25 C; 8% PAGE). Conditions: protein: recombinant; label: 5'-32P.
Chain of Musashi-2 (MSI2) (Q96DH6 whole entry): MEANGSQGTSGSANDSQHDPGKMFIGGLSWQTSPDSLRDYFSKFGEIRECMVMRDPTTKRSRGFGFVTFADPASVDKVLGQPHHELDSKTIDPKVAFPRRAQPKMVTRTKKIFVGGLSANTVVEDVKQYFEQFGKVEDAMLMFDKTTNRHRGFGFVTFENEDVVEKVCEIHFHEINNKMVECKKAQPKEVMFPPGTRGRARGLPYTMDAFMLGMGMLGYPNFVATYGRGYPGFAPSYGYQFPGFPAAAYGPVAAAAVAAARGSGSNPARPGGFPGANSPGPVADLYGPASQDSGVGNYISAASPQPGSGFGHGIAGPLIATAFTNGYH
GUAGUAGUAGUAGUA (ssRNA) [Positive Control oligo]: binds.
GCAGAUGUUUUAGAAGGAAAAA (ssRNA) [EGFR Oligo 1 wt]: binds.
UAACUUCGUUUUAGAAACAUUCAAG (ssRNA) [EGFR Oligo 2 wt]: binds.
GGUCCCAAGCCAAGCCUUAAGU (ssRNA) [Negative Control oligo]: no binding.
